Patent US20020099180A1 (published 2002)

T1: fibroblast activating protein alpha (FAPα), cell surface-bound on FAP+ cells (FAP over-expressing HT1080 … (human, UniProt Q12884 1-760))
T1 construct: whole, on cells; Target of the flow cytometry and of the immunohistology; also called cell membrane expressed FAP
T1 sequence (looked up): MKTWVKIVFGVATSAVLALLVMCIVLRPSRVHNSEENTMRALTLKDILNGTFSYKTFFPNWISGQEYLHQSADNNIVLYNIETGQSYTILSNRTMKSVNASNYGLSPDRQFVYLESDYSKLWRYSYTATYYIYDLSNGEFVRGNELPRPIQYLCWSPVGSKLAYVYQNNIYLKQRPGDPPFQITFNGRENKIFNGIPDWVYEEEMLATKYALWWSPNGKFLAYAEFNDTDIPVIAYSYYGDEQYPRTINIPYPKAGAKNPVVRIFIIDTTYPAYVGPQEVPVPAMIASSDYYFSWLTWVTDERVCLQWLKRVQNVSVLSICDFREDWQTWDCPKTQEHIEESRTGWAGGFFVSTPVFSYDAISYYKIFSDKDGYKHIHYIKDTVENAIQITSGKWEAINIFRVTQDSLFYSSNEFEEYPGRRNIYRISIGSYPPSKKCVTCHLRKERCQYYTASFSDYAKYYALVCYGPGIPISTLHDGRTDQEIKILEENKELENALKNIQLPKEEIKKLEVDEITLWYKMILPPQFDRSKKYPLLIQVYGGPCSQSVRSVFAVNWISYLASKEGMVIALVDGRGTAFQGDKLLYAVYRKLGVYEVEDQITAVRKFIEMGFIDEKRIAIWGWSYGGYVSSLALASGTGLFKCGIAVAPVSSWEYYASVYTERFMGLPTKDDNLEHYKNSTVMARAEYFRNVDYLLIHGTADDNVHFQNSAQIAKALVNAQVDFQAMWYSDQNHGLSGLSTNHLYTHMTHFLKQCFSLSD

T2: fibroblast activating protein alpha (FAPα), purified and immobilised (ELISA wells) (human, UniProt Q12884 27-760, limits assumed)
T2 construct: also called purified FAP; immobilized FAP
T2 sequence (looked up): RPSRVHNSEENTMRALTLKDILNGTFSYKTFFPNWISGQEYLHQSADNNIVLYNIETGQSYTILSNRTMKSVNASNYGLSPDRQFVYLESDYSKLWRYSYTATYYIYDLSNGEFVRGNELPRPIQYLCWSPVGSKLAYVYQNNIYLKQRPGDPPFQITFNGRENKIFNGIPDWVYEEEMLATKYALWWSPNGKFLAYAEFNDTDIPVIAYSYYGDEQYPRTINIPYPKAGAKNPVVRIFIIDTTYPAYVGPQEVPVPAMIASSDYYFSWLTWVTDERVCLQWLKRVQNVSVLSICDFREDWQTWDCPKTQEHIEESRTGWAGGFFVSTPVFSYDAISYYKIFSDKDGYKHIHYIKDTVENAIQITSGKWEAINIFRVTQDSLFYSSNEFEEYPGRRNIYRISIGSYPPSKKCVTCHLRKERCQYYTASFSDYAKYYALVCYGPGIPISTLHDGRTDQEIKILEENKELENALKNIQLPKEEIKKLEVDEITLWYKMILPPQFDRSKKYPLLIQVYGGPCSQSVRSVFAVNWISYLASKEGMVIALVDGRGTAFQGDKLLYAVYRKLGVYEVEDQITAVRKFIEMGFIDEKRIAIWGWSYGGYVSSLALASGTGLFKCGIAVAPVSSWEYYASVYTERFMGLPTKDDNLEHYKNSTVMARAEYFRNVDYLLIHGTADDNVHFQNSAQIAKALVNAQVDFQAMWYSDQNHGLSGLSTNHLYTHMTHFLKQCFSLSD


Columns and labels:
[1] = target: T1, fibroblast activating protein alpha …; assay: binding to FAP+ cells, cell analyser, half maximal saturation
[2] = target: T1, fibroblast activating protein alpha …; assay: flow cytometry saturation on FAP expressing HT1080 cells; SC50
[3] = target: T2, fibroblast activating protein alpha …; assay: sandwich ELISA, c-myc tag detection; SC50 = concentration of half maximal saturation of binding
[4] = target: T1, fibroblast activating protein alpha …; assay: flow cytometry saturation on FAP-overexpressing cells; half maximal saturation

Row | Binder | EC50 [1] [nM] | EC50 [2] [nM] | EC50 [3] [nM] | EC50 [4] [nM]
1 | scFv #13 in minibody format (bivalent) (other, also called scFv #13 (as bivalent in minibody format); scFv #13 (minibody format); not shown: hinge-linker-CH3-cmyc-HIS6 of the minibody) QVQLVESGGTLVQPGGSLRLSCAASGFTFSSYAMSWIRQAPGKGLEWVSGISASGGYIDYADSVKGRVTISRDNSKNMAYLQMSSLRAEDTALYYCAKGGNYQMLLDHWGQGTLVTVSSASTKGPKLEEGEFSEARVDIQMTQSPSSLSASTGDRVTITCRASQDISSYLAWYQQAPGKAPHLLMSGATTLQTGVPSRFSGSGSGTDFTLTITSLQSEDFATYYCQQYYIYPPTFGQGTRVEIKRTVAAPSVFAA | 8 to 12 | – | – | –
2 | scFv #34 (VH #34, IgG; VL III43; murine HCDR3 F19) (scFv, Humanised monovalent scFv, detected through the c-myc tag with 9E10; also called clone #34; VH34YOL III43; not shown: c-myc and HIS6 tags (pOPE101), or pIII in the screening ELISA) scFv: QVQLQQSGAEVKKPGSSVKVSCKASGGTFSTHTINWVRQAPGQGLEWMGGIAPMFGTANYAQKFQGRVTITADKSTSTAYMEMSSLRSDDTAVYYCARRRIAYGYDEGHAMDYWGQGTLVTVSSASTKGPKLEEGEFSEARVDIQMTQSPSSLSASTGDRVTITCRASQDISSYLAWYQQAPGKAPHLLMSGATTLQTGVPSRFSGSGSGTDFTLTISSLQAEDVAVYYCQQYYRTPFTFGQGTKLEIKRTVAAPSVFAA | ~6 | 6 | – | –
3 | scFv F19 (parental murine scFv of the monoclonal antibody F19) (scFv, V domains shown) VH: EVQLQQSGPELVKPGASVKMSCKTSRYTFTEYTIHWVRQSHGKSLEWIGGINPNNGIPNYNQKFKGRATLTVGKSSSTAYMELRSLTSEDSAVYFCARRRIAYGYDEGHAMDYWGQGTSVTVSS VL: DIVMSQSPSSLAVSVGEKVTMSCKSSQSLLYSRNQKNYLAWFQQKPGQSPKLLIFWASTRESGVPDRFTGSGFGTDFNLTISSVQAEDLAVYDCQQYFSYPLTFGAGTKLELK | – | 20 | 20 | –
4 | Mb #34 (minibody of scFv #34) (other, also called scFv #34-minibody; not shown: hinge-linker-CH3-cmyc-HIS6 of the minibody) QVQLQQSGAEVKKPGSSVKVSCKASGGTFSTHTINWVRQAPGQGLEWMGGIAPMFGTANYAQKFQGRVTITADKSTSTAYMEMSSLRSDDTAVYYCARRRIAYGYDEGHAMDYWGQGTLVTVSSASTKGPKLEEGEFSEARVDIQMTQSPSSLSASTGDRVTITCRASQDISSYLAWYQQAPGKAPHLLMSGATTLQTGVPSRFSGSGSGTDFTLTISSLQAEDVAVYYCQQYYRTPFTFGQGTKLEIKRTVAAPSVFAA | – | – | – | 2
5 | scFv #50 in minibody format (bivalent) (other, Minibody: bivalent homodimeric scFv derivative; also called scFv #50 (as bivalent in minibody format); not shown: hinge-linker-CH3-cmyc-HIS6 of the minibody) QVQLVESGGGLVQPGGSLRLSCAASGFTFSNYWMSWVRQAPGKGLEWVANIKQDGSEKYYVDSVKGRFTISRDNAKNSLYLQMNSLRAEDTAVYYCARGSLCTDGSCPTIGPGPNWGQGTLVTVSSAPTKAPKLEEGEFSEARVDIQMTQSPSSLSASTGDRVTITCRASQDISSYLAWYQQAPGKAPHLLMSGATTLQTGVPSRFSGSGSGTDFTLTITSLQSEDFATYYCQQYYIYPPTFGQGTRVEIKRTVAAPSVFAA | 32 | – | – | –
6 | scFv #18 (VH #18, IgG; VL III43; murine HCDR3 F19) (scFv, Humanised monovalent scFv, detected through the c-myc tag with 9E10; also called clone #18; VH18 YOL III43; not shown: c-myc and HIS6 tags (pOPE101), or pIII in the screening ELISA) scFv: QVQLVQSGAELKKPGSSMKVSCKASGDTFSTYSINWVRQAPGQGLEWMGVINPSGGSTSYAQKFQGRVTMTRDTSTSTVYMELSSLRSEDTAVYYCARRRIAYGYDEGHAMDYWGQGTLVTVSSASTKGPKLEEGEFSEARVDIQMTQSPSSLSASTGDRVTITCRASQDISSYLAWYQQAPGKAPHLLMSGATTLQTGVPSRFSGSGSGTDFTLTISSLQAEDVAVYYCQQYYRTPFTFGQGTKLEIKRTVAAPSVFAA | ~6 | 6 | – | –
7 | chimeric scFv III43 (murine VH F19 / human VL III43) (scFv, V domains shown) VH: EVQLQQSGPELVKPGASVKMSCKTSRYTFTEYTIHWVRQSHGKSLEWIGGINPNNGIPNYNQKFKGRATLTVGKSSSTAYMELRSLTSEDSAVYFCARRRIAYGYDEGHAMDYWGQGTSVTVSS VL: DIQMTQSPSSLSASTGDRVTITCRASQDISSYLAWYQQAPGKAPHLLMSGATTLQTGVPSRFSGSGSGTDFTLTISSLQAEDVAVYYCQQYYRTPFTFGQGTKLEIKR | – | – | 20 | –
